This is an account of results in US20210070829A1.

In this assay the target is FGFR/β-Klotho receptor complex. Description: cell-based or functional assay.

In the case of “Native FGF21 (from UniProt Q9NSA1 29-209) (ligand)”, the FGF21 activity EC50 (luciferase reporter) came to 0.12 nM.
